Reference: patent US20250136692A1 (GEORGIAMUNE, published 2025)
Residue numbers refer to the chain shown, from its start.

B1: 4G9-2 (antibody, human IgG1, kappa, V domains shown)
VH: QVQLVQSGAEVKKPGASVKVSCKASGYTFTTYGINWVRQATGQGLEWMGWINTYSGVPGYAQKFQGRVTMTLNTSISTAYMELSSLRSEDTAVYYCARGSGGFAYWGQGTLVTVSS
VL: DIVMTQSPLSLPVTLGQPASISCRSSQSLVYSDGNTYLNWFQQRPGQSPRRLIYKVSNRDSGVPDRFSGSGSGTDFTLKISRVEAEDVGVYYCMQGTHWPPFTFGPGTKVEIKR
B2: 4G9-12 (antibody, V domains shown)
VH: B1 VH with N73D
VL: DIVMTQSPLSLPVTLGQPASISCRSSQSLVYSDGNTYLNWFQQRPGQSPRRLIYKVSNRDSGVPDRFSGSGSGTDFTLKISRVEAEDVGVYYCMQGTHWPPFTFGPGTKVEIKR

Molecular target: PD-1 on human CD4+ T cells (human, UniProt Q15116 25-288)
Assay: cell-based or functional assay

PD-1 on human CD4+ T cells, sequence (Q15116 25-288 limits assumed): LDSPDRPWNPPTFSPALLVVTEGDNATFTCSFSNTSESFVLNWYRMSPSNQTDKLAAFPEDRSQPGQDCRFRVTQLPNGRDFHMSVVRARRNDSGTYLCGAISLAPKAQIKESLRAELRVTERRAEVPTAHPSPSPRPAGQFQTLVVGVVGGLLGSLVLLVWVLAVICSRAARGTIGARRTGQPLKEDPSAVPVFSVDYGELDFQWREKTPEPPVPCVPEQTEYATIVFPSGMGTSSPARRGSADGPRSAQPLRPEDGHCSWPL

Binder	IFN-γ levels in the supernatants of human CD4 T cells (ELISA), 4G9-2 at 25 µg/mL for 72 hours	ITK/SHP2 ratio (normalized to levels of PD-1), Protein A immunoprecipitation and Western blot
B1	3 fold	
B2		3 fold
